According to publication PMC3816987:

Columns and labels:
[1] = biological target: GST-free tubby-N (tubby N-terminus, 1M-242P) (mouse) (UniProt P50586); experiment: phage binding assay
[2] = biological target: GST fusion protein of Tulp1-N (1M-298Q) (mouse) (UniProt Q9Z273); experiment: phage binding assay
Chain of GST fusion protein of Tulp1-N (1M-298Q) (mouse) (Q9Z273 1-298): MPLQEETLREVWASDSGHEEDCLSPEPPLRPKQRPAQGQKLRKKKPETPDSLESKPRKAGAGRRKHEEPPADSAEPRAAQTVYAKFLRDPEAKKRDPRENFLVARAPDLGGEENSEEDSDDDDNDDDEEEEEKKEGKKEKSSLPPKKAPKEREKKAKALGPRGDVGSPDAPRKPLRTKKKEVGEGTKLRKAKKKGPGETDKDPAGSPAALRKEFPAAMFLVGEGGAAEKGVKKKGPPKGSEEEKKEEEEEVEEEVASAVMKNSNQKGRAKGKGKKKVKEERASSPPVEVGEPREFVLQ

Chain of GST-free tubby-N (tubby N-terminus, 1M-242P) (mouse) (P50586 1-242): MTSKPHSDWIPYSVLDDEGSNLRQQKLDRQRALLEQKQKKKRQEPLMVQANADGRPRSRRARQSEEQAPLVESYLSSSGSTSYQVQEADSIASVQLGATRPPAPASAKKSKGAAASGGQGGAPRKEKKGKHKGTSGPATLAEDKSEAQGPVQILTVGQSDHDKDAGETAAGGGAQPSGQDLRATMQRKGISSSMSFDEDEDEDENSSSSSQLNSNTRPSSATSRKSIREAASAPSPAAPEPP
Chain of Structure specific recognition protein 1 (Ssrp1) phage clone, 486E-619G (Q08943 2-708): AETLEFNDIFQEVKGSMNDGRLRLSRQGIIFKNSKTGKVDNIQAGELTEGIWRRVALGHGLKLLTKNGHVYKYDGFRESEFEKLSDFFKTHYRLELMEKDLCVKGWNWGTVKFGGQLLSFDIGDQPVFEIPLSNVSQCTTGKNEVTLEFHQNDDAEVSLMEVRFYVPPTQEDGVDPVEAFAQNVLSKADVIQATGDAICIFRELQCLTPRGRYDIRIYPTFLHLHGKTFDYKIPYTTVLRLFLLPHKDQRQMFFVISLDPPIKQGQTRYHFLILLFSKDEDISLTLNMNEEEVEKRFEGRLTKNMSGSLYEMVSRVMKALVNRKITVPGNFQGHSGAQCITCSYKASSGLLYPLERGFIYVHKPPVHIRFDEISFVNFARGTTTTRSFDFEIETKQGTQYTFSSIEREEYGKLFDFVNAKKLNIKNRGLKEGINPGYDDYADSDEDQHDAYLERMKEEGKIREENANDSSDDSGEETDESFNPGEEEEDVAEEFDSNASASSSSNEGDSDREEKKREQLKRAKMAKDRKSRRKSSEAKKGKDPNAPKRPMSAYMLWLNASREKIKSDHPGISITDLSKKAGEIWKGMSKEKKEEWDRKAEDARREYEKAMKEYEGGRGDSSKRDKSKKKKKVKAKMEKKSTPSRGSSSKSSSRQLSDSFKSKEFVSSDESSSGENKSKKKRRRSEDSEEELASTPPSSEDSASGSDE
Chain of ATP-binding cassette F1 (Abcf1) phage clone, 57K-196G (Q6P542 whole entry, the tested form may be a part): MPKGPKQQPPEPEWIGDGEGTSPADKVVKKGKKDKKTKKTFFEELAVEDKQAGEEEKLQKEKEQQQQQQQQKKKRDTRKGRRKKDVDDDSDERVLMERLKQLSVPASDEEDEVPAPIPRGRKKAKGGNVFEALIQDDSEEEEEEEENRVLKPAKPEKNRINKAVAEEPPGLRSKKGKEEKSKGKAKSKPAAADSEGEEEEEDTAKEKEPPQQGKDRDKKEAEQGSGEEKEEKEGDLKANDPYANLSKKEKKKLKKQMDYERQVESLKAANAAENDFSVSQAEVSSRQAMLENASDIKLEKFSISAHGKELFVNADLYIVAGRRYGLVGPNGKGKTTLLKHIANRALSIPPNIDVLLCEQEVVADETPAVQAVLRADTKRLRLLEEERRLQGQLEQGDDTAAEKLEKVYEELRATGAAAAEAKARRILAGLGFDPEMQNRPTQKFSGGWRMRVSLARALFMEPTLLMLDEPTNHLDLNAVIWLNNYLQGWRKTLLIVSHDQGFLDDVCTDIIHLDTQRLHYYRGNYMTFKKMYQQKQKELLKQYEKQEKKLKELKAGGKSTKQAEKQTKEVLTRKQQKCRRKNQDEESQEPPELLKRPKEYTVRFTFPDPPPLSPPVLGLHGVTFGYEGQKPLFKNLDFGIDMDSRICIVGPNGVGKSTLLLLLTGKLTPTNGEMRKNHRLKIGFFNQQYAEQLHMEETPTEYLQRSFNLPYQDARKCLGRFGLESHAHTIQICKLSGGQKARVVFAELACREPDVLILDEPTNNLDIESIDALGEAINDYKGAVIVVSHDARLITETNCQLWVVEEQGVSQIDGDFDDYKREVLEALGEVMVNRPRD
Chain of Zinc finger E-box binding homeobox 1 (Zeb1) phage clone, 903E-1021E (Q64318 whole entry, the tested form may be a part): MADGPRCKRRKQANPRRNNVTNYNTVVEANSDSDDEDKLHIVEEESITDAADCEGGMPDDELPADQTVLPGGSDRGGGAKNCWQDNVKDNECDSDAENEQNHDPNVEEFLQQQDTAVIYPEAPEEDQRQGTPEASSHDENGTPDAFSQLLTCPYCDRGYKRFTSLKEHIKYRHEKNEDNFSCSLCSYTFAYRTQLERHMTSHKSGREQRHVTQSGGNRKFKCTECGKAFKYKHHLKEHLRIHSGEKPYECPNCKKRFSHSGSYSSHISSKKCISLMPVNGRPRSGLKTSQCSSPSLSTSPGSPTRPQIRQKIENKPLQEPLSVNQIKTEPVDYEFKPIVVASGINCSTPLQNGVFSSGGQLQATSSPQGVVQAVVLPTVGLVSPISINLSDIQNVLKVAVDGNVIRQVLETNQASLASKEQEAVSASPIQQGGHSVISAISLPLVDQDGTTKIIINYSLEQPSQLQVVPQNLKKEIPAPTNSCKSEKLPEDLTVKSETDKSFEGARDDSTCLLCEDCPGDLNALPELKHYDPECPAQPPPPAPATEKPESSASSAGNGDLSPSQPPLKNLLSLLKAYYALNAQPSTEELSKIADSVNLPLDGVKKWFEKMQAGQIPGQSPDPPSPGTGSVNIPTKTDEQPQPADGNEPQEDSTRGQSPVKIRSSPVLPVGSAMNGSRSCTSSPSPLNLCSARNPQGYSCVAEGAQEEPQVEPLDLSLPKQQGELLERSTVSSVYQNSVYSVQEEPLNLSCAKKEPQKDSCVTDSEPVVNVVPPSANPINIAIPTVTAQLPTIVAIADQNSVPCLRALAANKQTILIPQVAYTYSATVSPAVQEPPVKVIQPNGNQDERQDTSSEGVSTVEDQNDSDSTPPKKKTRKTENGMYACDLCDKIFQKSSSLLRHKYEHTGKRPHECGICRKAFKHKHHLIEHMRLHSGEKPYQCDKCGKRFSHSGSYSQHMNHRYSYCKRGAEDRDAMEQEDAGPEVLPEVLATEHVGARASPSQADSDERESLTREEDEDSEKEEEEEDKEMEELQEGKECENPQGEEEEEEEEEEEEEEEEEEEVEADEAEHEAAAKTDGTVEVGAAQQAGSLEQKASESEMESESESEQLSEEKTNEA
Chain of High mobility group (Hmg) box 2 (Hmgb2) phage clone, 89K-188E (P30681 whole entry, the tested form may be a part): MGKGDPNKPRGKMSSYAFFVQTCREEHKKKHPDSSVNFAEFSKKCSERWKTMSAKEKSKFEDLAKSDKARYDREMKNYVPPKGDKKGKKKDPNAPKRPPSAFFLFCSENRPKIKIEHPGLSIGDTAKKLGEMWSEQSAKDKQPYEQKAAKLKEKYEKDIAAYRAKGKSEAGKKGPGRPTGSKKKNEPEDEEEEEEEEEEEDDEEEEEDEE
Chain of Zinc finger protein 609 (Zfp609) phage clone, 1M-183E (domain or fragment) (Q8BZ47 whole entry, the tested form may be a part): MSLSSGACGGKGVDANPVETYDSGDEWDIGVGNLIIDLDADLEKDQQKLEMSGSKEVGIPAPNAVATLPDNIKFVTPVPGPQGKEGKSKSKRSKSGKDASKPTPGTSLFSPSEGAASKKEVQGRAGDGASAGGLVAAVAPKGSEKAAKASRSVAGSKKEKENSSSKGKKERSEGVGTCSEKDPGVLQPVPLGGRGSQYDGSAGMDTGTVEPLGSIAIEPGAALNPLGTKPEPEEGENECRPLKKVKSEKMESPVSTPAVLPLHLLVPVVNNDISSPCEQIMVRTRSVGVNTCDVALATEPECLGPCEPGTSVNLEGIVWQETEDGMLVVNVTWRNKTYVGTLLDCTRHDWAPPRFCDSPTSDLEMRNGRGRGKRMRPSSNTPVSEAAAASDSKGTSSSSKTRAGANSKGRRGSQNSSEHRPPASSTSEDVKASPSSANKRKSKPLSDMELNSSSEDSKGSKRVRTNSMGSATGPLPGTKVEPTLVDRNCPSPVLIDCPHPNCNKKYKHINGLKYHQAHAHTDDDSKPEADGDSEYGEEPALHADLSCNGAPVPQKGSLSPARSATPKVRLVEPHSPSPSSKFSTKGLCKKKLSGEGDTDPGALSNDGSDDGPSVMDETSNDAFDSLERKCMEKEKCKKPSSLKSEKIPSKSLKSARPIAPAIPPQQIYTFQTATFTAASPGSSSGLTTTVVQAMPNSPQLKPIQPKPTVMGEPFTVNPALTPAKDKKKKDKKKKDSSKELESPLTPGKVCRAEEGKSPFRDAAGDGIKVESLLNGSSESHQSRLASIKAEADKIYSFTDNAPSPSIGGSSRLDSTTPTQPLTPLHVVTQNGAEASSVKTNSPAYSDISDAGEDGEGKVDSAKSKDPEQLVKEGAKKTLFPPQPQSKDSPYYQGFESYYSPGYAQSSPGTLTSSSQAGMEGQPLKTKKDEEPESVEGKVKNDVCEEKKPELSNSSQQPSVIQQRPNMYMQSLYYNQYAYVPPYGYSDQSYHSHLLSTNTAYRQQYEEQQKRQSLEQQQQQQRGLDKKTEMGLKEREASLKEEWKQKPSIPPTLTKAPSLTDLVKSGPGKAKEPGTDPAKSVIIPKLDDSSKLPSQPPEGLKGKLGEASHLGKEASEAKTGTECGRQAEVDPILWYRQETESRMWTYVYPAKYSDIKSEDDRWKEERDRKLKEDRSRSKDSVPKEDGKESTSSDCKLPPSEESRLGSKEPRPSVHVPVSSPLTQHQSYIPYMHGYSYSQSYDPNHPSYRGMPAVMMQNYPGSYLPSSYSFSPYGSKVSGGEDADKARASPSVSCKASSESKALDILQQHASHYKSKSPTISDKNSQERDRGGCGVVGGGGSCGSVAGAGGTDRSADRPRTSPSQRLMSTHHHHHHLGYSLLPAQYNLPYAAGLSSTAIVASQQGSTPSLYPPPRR
Chain of Hmg. nucleosomal binding domain 1 (Hmgn1) phage clone, 1M-49K (P18608 2-96): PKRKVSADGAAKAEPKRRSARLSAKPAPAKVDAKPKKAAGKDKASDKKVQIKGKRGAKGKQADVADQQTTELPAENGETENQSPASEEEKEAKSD

“ATP-binding cassette F1 (Abcf1) phage clone, 57K-196G (from UniProt Q6P542 57-196) (domain or fragment)” gave a binding specificity, clonal phage vs. control phage [1] of 68.2 X and a binding specificity, clonal phage vs. control phage [2] of 33.4 X.
“Structure specific recognition protein 1 (Ssrp1) phage clone, 486E-619G (from UniProt Q08943-1 486-619) (domain or fragment)” gave a binding specificity, clonal phage vs. control phage [1] of 157 X and a binding specificity, clonal phage vs. control phage [2] of 39.7 X.
“Zinc finger E-box binding homeobox 1 (Zeb1) phage clone, 903E-1021E (from UniProt Q64318 903-1021) (domain or fragment)” gave a binding specificity, clonal phage vs. control phage [1] of 284 X and a binding specificity, clonal phage vs. control phage [2] of 56.7 X.
Work on “Microtubule-associated protein 7 (Mtap7) phage clone, 23A-114R (from UniProt O88735 23-114) (domain or fragment)” yielded a binding specificity, clonal phage vs. control phage [1] of 3.5 X.
Work on “Armadillo repeat containing, X-linked 4 phage clone, 419S-587N (domain or fragment)” yielded a binding specificity, clonal phage vs. control phage [1] of 40.1 X.
In the case of “High mobility group (Hmg) box 2 (Hmgb2) phage clone, 89K-188E (from UniProt P30681 89-188) (domain or fragment)”, the binding specificity, clonal phage vs. control phage [1] was 312 X and the binding specificity, clonal phage vs. control phage [2] was 55.2 X.
For “Hmg. nucleosomal binding domain 1 (Hmgn1) phage clone, 1M-49K (from UniProt P18608 1-49) (domain or fragment)”, the binding specificity, clonal phage vs. control phage [1] was 61.4 X.
For “Hmg. box 2-like 1 (Hmgb2l1) phage clone, 170K-305G (domain or fragment)”, the binding specificity, clonal phage vs. control phage [1] was 29.8 X.
Work on “PC4 and SFRS1 interacting protein 1 (Psip1) phage clone, 152K-219K (from UniProt Q99JF8-1 152-219) (domain or fragment)” yielded a binding specificity, clonal phage vs. control phage [1] of 196 X and a binding specificity, clonal phage vs. control phage [2] of 24.1 X.
“Zinc finger protein 609 (Zfp609) phage clone, 1M-183E (domain or fragment)” was tested, and the binding specificity, clonal phage vs. control phage [1] was 53.2 X.
